# Where “and” joins values, the source holds several entries; their conditions need not be identical. Equal entries are not always repeated.
# B1: CXCR4EM (human CXCR4 with N119S, hemagglutinin signal peptide, C-terminal monomeric enhanced GFP and FLAG tag) (receptor)
# chain: EGISIYTSDNYTEEMGSGDYDSMKEPCFREENANFNKIFLPTIYSIIFLTGIVGNGLVILVMGYQKKLRSMTDKYRLHLSVADLLFVITLPFWAVDAVANWYFGNFLCKAVHVIYTVSLYSSVLILAFISLDRYLAIVHATNSQRPRKLLAEKVVYVGVWIPALLLTIPDFIFANVSEADDRYICDRFYPNDLWVVVFQFQHIMVGLILPGIVILSCYCIIISKLSHSKGHQKRKALKTTVILILAFFACWLPYYIGISIDSFILLEIIKQGCEFENTVHKWISITEALAFFHCCLNPILYAFLGAKFKTSAQHALTSVSRGSSLKILSKGKRGGHSSVSTESESSSFHSS
# Biological target: the molecule itself
# Assay: cryo-EM structure
protein,measurement,value
B1,stoichiometry N,3 and 4
